Consider 73 substances from US20220143214A1.

Where “and” joins values, the source holds several entries; their conditions need not be identical. Equal entries are not always repeated.

The target in test [1] is LY6A (Ly6a, C57BL/6J mouse) (mouse (C57BL/6J)) (UniProt P05533). Description: AAV library bound to Ly6a-transfected HEK293T cells, NGS.
Test [2] deals with LY6C1 (Ly6c1, C57BL/6J mouse, splice variant 1) (mouse (C57BL/6J)) (UniProt P0CW02). Description: AAV library bound to Ly6c1-transfected HEK293T cells, NGS.
Chain of UniProt P0CW02 (P0CW02 27-109 limits assumed, change not shown): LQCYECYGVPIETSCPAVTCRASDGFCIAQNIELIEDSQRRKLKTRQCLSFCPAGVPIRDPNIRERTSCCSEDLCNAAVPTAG

Chain of UniProt P05533 (P05533 27-112 limits assumed): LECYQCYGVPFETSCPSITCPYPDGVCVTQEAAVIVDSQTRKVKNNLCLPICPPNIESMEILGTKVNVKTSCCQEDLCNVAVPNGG

AAV9 K449R 7-mer variant VNRGYSS: the fold enrichment (log2) in test [1] turned out to be 0.89 log2; in test [2], 5.18 log2.
The matching figures for AAV9 K449R 7-mer variant DKYNFSS: -0.13 log2 and 3.43 log2.
The matching figures for AAV9 K449R 7-mer variant NSPGWSS: -0.93 log2 and 3.08 log2.
The matching figures for AAV9 K449R 7-mer variant AGSFKDI: 3.96 log2 and -2.87 log2.
Regarding AAV9 K449R 7-mer variant SKGSYST, the fold enrichment (log2) was found to be 1.54 log2 in test [1] and 2.74 log2 in test [2].
The matching figures for AAV9 K449R 7-mer variant HTQGYST: -3.32 log2 and 2.26 log2.
The matching figures for AAV9 K449R 7-mer variant SEGRPFI: 1.85 log2 and -3.55 log2.
In the case of AAV9 K449R 7-mer variant TITFKDV, the results for the fold enrichment (log2) in test [1] and in test [2] were 5.15 log2 and -0.78 log2, respectively.
The matching figures for AAV9 K449R 7-mer variant SYIGASS: -1.01 log2 and 5.08 log2.
For the substance AAV9 K449R 7-mer variant RLSFKDV, the values for the fold enrichment (log2) in test [1] and in test [2] were 2.39 log2 and -1.62 log2, respectively.
The matching figures for AAV9 K449R 7-mer variant VPRYGSS: -1.01 log2 and 3.55 log2.
The matching figures for AAV9 K449R 7-mer variant PYQGASS: -0.53 log2 and 5.24 log2.
The matching figures for AAV9 K449R 7-mer variant TRTGYST: 0.89 log2 and 4.63 log2.
Take AAV9 K449R 7-mer variant TTMKPFN: the fold enrichment (log2) is 2.95 log2 in test [1] and -3.74 log2 in test [2].
AAV9 K449R 7-mer variant SKTGYST: the fold enrichment (log2) was -3.55 log2 in test [1] and 4.43 log2 in test [2].
The matching figures for AAV9 K449R 7-mer variant LKKGYST: 1.72 log2 and 2.96 log2.
As to AAV9 K449R 7-mer variant DRIHGYS, the results for the fold enrichment (log2) in test [1] and in test [2] were -0.11 log2 and 4.34 log2, respectively.
Turning to AAV9 K449R 7-mer variant SSEKPFQ, the results for the fold enrichment (log2) in test [1] and in test [2] were 2.69 log2 and -3.55 log2, respectively.
The matching figures for AAV9 K449R 7-mer variant NLKRPFA: 2.8 log2 and 0.85 log2.
The matching figures for AAV9 K449R 7-mer variant SLDFKNI: 4.61 log2 and -1.29 log2.
The matching figures for AAV9 K449R 7-mer variant KDKFKDI: 3.38 log2 and -2.08 log2.
Take AAV9 K449R 7-mer variant TSFKPFP: the fold enrichment (log2) in test [1] worked out at 3.11 log2; in test [2], 0.48 log2.
The matching figures for AAV9 K449R 7-mer variant SIARPFV: 3.79 log2 and -3.55 log2.
The matching figures for AAV9 K449R 7-mer variant AKAGYAS: -0.03 log2 and 4.54 log2.
For AAV9 K449R 7-mer variant TSMKPFL, the fold enrichment (log2) in test [1] is 3.49 log2; in test [2], -0.98 log2.
Regarding AAV9 K449R 7-mer variant KQYQGST, the fold enrichment (log2) in test [1] was determined as 1.54 log2; in test [2] it was 4.88 log2.
The matching figures for AAV9 K449R 7-mer variant TRFGAST: 0 log2 and 4.32 log2.
The matching figures for AAV9 K449R 7-mer variant TRDLPFK: 4.34 log2 and -1.36 log2.
The matching figures for AAV9 K449R 7-mer variant VAERPFK: 6.38 log2 and 1.22 log2.
For AAV9 K449R 7-mer variant TYGGYSQ, the fold enrichment (log2) in test [1] is -0.34 log2; in test [2] it was 2.02 log2.
The matching figures for AAV9 K449R 7-mer variant TRFGSST: 1.29 log2 and 3.63 log2.
The matching figures for AAV9 K449R 7-mer variant GVDRPFK: 3.84 log2 and -1.13 log2.
The matching figures for AAV9 K449R 7-mer variant QHFGQSS: -0.37 log2 and 4.68 log2.
For the substance AAV9 K449R 7-mer variant GKTGYST, the fold enrichment (log2) in test [1] is -3.32 log2; in test [2], 2.93 log2.
The matching figures for AAV9 K449R 7-mer variant TKSTPFI: 2.6 log2 and -1.85 log2.
The matching figures for AAV9 K449R 7-mer variant GKHFSST: 2.64 log2 and 4.25 log2.
The matching figures for AAV9 K449R 7-mer variant TVTGYSS: -3.91 log2 and 3.22 log2.
With AAV9 K449R 7-mer variant LWAKGST, the results for the fold enrichment (log2) in test [1] and in test [2] were 1.42 log2 and 3.9 log2, respectively.
Consider AAV9 K449R 7-mer variant SYQGYSS, for which the results for the fold enrichment (log2) in test [1] and in test [2] were 1.47 log2 and 5.21 log2, respectively.
Consider AAV9 K449R 7-mer variant HEHRYST, for which the fold enrichment (log2) was -4.06 log2 in test [1] and 3.06 log2 in test [2].
The matching figures for AAV9 K449R 7-mer variant QSAGYST: -1.58 log2 and 2.55 log2.
The matching figures for AAV9 K449R 7-mer variant ESRGFSS: -0.58 log2 and 4.7 log2.
The matching figures for AAV9 K449R 7-mer variant NGYKGST: 1.24 log2 and 4.98 log2.
Consider AAV9 K449R 7-mer variant NRGGYAS, for which the fold enrichment (log2) was -0.18 log2 in test [1] and 4.53 log2 in test [2].
For the substance AAV9 K449R 7-mer variant LLRGASS, the fold enrichment (log2) in test [1] was -0.33 log2; in test [2] it was 2.96 log2.
The matching figures for AAV9 K449R 7-mer variant QDKGYSS: -3.55 log2 and 2.61 log2.
The matching figures for AAV9 K449R 7-mer variant SIYLGSQ: -0.76 log2 and 4.47 log2.
On to AAV9 K449R 7-mer variant GSERPFL, for which the fold enrichment (log2) in test [1] is 3.78 log2; in test [2], -4.2 log2.
The matching figures for AAV9 K449R 7-mer variant LAHTYSS: 0.04 log2 and 3.97 log2.
As to AAV9 K449R 7-mer variant SKSGYSA, the fold enrichment (log2) in test [1] is -3.32 log2; in test [2], 2.14 log2.
The matching figures for AAV9 K449R 7-mer variant DMERPFK: 4.51 log2 and -3.91 log2.
The matching figures for AAV9 K449R 7-mer variant ESSKPFR: 3.15 log2 and 1.28 log2.
The matching figures for AAV9 K449R 7-mer variant DTKWSSS: 0.53 log2 and 4.11 log2.
With AAV9 K449R 7-mer variant LRGGYST, the fold enrichment (log2) is -3.32 log2 in test [1] and 2.88 log2 in test [2].
The matching figures for AAV9 K449R 7-mer variant EDHRYSS: 0.17 log2 and 3.4 log2.
The matching figures for AAV9 K449R 7-mer variant IRVGYST: -3.55 log2 and 3.46 log2.
The matching figures for AAV9 K449R 7-mer variant NERRPFL: 4.31 log2 and 0.77 log2.
As to AAV9 K449R 7-mer variant DKQKPFL, the values for the fold enrichment (log2) in test [1] and in test [2] were 4.6 log2 and 0.94 log2, respectively.
The matching figures for AAV9 K449R 7-mer variant AISAPFK: 2.56 log2 and -0.06 log2.
The matching figures for AAV9 K449R 7-mer variant QNARPFV: 1.52 log2 and 1.42 log2.
The matching figures for AAV9 K449R 7-mer variant KTQFKDV: 2.09 log2 and -3.55 log2.
Take AAV9 K449R 7-mer variant YLKGYSA: the fold enrichment (log2) is 0.15 log2 in test [1] and 4.46 log2 in test [2].
The matching figures for AAV9 K449R 7-mer variant RIDNPFK: 4.48 log2 and -1.89 log2.
For the substance AAV9 K449R 7-mer variant MRTFGSA, the fold enrichment (log2) came out at 1 log2 in test [1] and 3.97 log2 in test [2].
The matching figures for AAV9 K449R 7-mer variant DSQRPFI: 2.63 log2 and -3.55 log2.
The matching figures for AAV9 K449R 7-mer variant STRGYSA: 1.08 log2 and 3.55 log2.
The matching figures for AAV9 K449R 7-mer variant LRTAYSS: 1.13 log2 and 5.12 log2.
As for AAV9 K449R 7-mer variant LNRGSST, the results for the fold enrichment (log2) in test [1] and in test [2] were 1.72 log2 and 4.15 log2, respectively.
The matching figures for AAV9 K449R 7-mer variant LSMGYST: -3.91 log2 and 2.97 log2.
The matching figures for AAV9 K449R 7-mer variant HKTHYSS: 0.86 log2 and 3.24 log2.
The matching figures for AAV9 K449R 7-mer variant SHTKPFA: 4.79 log2 and 0.97 log2.
Consider AAV9 K449R 7-mer variant NIIRPFA, for which the fold enrichment (log2) came out at 3.23 log2 in test [1] and 0.4 log2 in test [2].
For the substance AAV9 K449R 7-mer variant NYTGYSS, in test [2], the fold enrichment (log2) was 4.83 log2 and 4.44 log2.
